Consider one molecule from publication PMC5749160, “Disruption of an RNA-binding hinge region abolishes LHP1-mediated epigenetic repression”.

Common to all, as to details: protein: recombinant; tags: N-terminal GST (pGEX-4T-1); label: 5' Cy5; single-stranded
The target in one series is T1, GST-LHP1 KR33A (Arabidopsis thaliana (Col-0 cDNA), UniProt Q946J8 1-445, R166A;K167A;R168A;K169A;R170A;K171A;K180A;K181A;K182A;R184A;K195A;R224A;K229A;R2 …).
T1 sequence: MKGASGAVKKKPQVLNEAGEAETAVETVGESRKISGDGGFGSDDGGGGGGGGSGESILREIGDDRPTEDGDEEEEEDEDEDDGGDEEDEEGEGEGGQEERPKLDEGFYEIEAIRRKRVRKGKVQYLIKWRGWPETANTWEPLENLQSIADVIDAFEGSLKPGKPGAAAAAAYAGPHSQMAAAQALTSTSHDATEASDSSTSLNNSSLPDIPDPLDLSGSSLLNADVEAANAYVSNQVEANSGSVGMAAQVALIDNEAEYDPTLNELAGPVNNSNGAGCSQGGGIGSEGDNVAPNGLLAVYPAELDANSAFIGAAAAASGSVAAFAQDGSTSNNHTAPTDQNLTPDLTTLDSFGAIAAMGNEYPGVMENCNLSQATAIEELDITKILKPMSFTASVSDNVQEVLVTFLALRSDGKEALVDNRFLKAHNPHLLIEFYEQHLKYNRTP
The series is described as follows: EMSA; EMSA: 20 mM HEPES-KOH pH 7.5, 100 mM KCl, 0.05% NP-40, 10 nM Cy5 probe (1 uL of 100 nM + 9 uL protein), 30 min room temperature; 1.6% TBE-agarose gel. For orientation: Mobility shift assays separate free from complexed probe on a gel.

The target in another series is T2, GST-LHP1 KR23A (Arabidopsis thaliana (Col-0 cDNA), UniProt Q946J8 1-445, R166A;K167A;R168A;K169A;R170A;K171A;K180A;K181A;K182A;R184A;K195A;R292A;K298A;K3 …).
T2 sequence: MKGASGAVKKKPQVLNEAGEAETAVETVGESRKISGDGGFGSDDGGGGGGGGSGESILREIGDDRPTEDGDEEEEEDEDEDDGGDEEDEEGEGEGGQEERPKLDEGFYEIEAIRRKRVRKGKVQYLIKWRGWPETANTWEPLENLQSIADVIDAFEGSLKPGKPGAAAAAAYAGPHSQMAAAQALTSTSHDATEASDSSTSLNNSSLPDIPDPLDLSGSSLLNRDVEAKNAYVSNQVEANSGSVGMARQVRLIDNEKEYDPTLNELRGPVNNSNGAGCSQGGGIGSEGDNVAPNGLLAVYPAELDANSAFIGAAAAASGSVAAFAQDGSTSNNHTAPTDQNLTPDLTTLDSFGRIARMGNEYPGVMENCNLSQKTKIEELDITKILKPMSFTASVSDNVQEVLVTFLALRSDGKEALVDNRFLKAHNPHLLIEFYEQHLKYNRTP
Described as above.

For a further series, the target named is T3, GST-LHP1 W129C (Arabidopsis thaliana (Col-0 cDNA), UniProt Q946J8 1-445, W129C).
T3 sequence: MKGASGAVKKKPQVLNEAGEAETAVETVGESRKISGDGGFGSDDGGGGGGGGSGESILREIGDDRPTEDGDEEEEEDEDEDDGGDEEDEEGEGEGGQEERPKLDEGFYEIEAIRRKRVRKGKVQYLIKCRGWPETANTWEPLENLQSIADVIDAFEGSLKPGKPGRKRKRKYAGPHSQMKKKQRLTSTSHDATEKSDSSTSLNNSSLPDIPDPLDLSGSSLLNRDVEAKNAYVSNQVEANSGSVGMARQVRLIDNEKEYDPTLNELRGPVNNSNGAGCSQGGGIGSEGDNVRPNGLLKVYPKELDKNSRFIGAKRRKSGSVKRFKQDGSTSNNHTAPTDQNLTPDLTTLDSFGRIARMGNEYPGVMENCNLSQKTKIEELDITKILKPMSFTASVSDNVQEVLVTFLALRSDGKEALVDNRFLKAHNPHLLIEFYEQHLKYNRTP
In words: EMSA; wild-type RNA-binding activity retained; EMSA: 20 mM HEPES-KOH pH 7.5, 100 mM KCl, 0.05% NP-40, 10 nM Cy5 probe (1 uL of 100 nM + 9 uL protein), 30 min room temperature; 1.6% TBE-agarose gel.

Consider CUCCUCCGGCGAUAAGUACGCCUUUUCCUUACCUGGGUUU (ssRNA) [FLC 40-nt ssRNA], for which the binding result with GST-LHP1 KR33A is listed as “no binding”; with GST-LHP1 KR23A, “no binding”; in the series with GST-LHP1 W129C, “binds”.
